Consider two molecules from article PMC11531391 (Cell, 2024).

For assay [1], the target named is L-TGF-β1 (latent TGF-β1 dimer, R249A, as it stands in L-TGF-β1/GARP) (human). Briefly: cryo-EM structure; purified L-TGF-β1/GARP or L-TGF-β3/GARP alone, 0.3 mg/ml.
The target of assay [2] is T1, L-TGF-β3/GARP (purified complex of latent TGF-β3 with the GARP ectodomain) (human, UniProt Q14392 20-627).
T1 chain 1: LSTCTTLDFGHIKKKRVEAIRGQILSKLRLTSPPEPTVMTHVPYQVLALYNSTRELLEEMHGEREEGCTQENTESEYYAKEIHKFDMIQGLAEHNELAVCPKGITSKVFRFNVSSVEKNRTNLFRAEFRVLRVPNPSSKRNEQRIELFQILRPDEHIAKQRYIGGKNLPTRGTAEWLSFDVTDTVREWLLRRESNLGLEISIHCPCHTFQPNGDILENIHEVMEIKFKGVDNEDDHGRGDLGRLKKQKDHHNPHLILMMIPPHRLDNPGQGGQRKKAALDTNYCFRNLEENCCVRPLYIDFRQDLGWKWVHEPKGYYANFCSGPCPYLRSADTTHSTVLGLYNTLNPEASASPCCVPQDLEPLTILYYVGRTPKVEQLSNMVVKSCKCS
T1 chain 2: T1 chain 1 with D240E
T1 chain 3: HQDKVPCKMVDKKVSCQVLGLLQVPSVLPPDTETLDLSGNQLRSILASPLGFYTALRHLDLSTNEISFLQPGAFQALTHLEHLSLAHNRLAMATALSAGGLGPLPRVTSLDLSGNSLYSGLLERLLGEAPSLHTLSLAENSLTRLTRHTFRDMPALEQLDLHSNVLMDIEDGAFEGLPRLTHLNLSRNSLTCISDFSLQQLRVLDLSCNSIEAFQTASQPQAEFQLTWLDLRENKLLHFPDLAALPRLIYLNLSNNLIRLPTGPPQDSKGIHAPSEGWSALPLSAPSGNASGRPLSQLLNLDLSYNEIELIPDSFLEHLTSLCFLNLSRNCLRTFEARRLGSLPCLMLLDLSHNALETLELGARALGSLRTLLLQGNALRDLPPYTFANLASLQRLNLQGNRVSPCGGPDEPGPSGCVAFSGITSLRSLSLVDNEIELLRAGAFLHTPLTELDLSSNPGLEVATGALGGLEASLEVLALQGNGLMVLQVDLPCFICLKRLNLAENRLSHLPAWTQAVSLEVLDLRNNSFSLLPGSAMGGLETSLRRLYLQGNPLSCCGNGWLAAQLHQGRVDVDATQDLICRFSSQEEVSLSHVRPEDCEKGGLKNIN
Description: mass photometry; L-TGF-β3/GARP with αvβ8; TBS with 1 mM CaCl2, 1 mM MgCl2. The following applies: both partners purified.

Assay [3] addresses L-TGF-β1/GARP (secreted complex of latent TGF-β1 with the GARP ectodomain) (human) (UniProt Q14392). Description: mass photometry + cryo-EM structure; L-TGF-β1/GARP mixed with recombinant αvβ8 ectodomain at 1:1 molar ratio; mass photometry in TBS with 1 mM CaCl2, 1 mM MgCl2.

Numbering of substitutions follows the chain as printed. Values joined by “and” are separate entries in the source; they are usually repeats but may differ in a detail not shown here. Identical values can stand only once.

What is called stoichiometry N is the number of molecules, sites or subunits per partner or assembly.

In assay [1], “L-TGF-β1 (latent TGF-β1 dimer, R249A, as it stands in L-TGF-β1/GARP) (natural protein)” displayed a stoichiometry N of 2.

B1: secreted ectodomain of αvβ8 integrin (receptor)
chain 1: FNLDVDSPAEYSGPEGSYFGFAVDFFVPSASSRMFLLVGAPKANTTQPGIVEGGQVLKCDWSSTRRCQPIEFDATGNRDYAKDDPLEFKSHQWFGASVRSKQDKILACAPLYHWRTEMKQEREPVGTCFLQDGTKTVEYAPCRSQDIDADGQGFCQGGFSIDFTKADRVLLGGPGSFYWQGQLISDQVAEIVSKYDPNVYSIKYNNQLATRTAQAIFDDSYLGYSVAVGDFNGDGIDDFVSGVPRAARTLGMVYIYDGKNMSSLYNFTGEQMAAYFGFSVAATDINGDDYADVFIGAPLFMDRGSDGKLQEVGQVSVSLQRASGDFQTTKLNGFEVFARFGSAIAPLGDLDQDGFNDIAIAAPYGGEDKKGIVYIFNGRSTGLNAVPSQILEGQWAARSMPPSFGYSMKGATDIDKNGYPDLIVGAFGVDRAILYRARPVITVNAGLEVYPSILNQDNKTCSLPGTALKVSCFNVRFCLKADGKGVLPRKLNFQVELLLDKLKQKGAIRRALFLYSRSPSHSKNMTISRGGLMQCEELIAYLRDESEFRDKLTPITIFMEYRLDYRTAADTTGLQPILNQFTPANISRQAHILLDCGEDNVCKPKLEVSVDSDQKKIYIGDDNPLTLIVKAQNQGEGAYEAELIVSIPLQADFIGVVRNNEALARLSCAFKTENQTRQVVCDLGNPMKAGTQLLAGLRFSVHQQSEMDTSVKFDLQIQSSNLFDKVSPVVSHKVDLAVLAAVEIRGVSSPDHVFLPIPNWEHKENPETEEDVGPVVQHIYELRNNGPSSFSKAMLHLQWPYKYNNNTLLYILHYDIDGPMNCTSDMEINPLRIKISSLQTTEKNDTVAGQGERDHLITKRDLALSEGDIHTLGCGVAQCLKIVCQVGRLDRGKSAILYVKSLLWTETFMNKENQNHSYSLKSSASFNVIEFPYKNLPIEDITNSTLVTTNVTWGIQPAPMPV
chain 2: EDNRCASSNAASCARCLALGPECGWCVQEDFISGGSRSERCDIVSNLISKGCSVDSIEYPSVHVIIPTENEINTQVTPGEVSIQLRPGAEANFMLKVHPLKKYPVDLYYLVDVSASMHNNIEKLNSVGNDLSRKMAFFSRDFRLGFGSYVDKTVSPYISIHPERIHNQCSDYNLDCMPPHGYIHVLSLTENITEFEKAVHRQKISGNIDTPEGGFDAMLQAAVCESHIGWRKEAKRLLLVMTDQTSHLALDSKLAGIVVPNDGNCHLKNNVYVKSTTMEHPSLGQLSEKLIDNNINVIFAVQGKQFHWYKDLLPLLPGTIAGEIESKAANLNNLVVEAYQKLISEVKVQVENQVQGIYFNITAICPDGSRKPGMEGCRNVTSNDEVLFNVTVTMKKCDVTGGKNYAIIKPIGFNETAKIHIHRNCSCQCEDNRGPKGKCVDETFLDSKCFQCDENKCHFDEDQFSSESCKSHKDQPVCSGRGVCVCGKCSCHKIKLGKVYGKYCEKDDFSCPYHHGNLCAGHGECEAGRCQCFSGWEGDRCQCPSAAAQHCVNSKGQVCSGRGTCVCGRCECTDPRSIGRFCEHCPTCYTACKENWNCMQCLHPHNLSQAILDQCKTSCALMEQQHYVDQTSECFSSPSYLR
notes: integrin αv, truncated (αvtr pcDM8), secreted ectodomain; integrin β8, truncated (β8tr), secreted ectodomain; also called αvβ8tr; truncated αvβ8 ectodomain; source: ExpiCHO, transfected, purified from supernatant (Protein G crosslinked with antibody 8B8, SEC on Superose 6)
With B1, the “stoichiometry N” value in assay [2] was 1 and 2; in assay [3], 1 and 2.
